Reference: US20260116944A1, “NOVEL TRIPLE GLP-1/GIP/GLUCAGON RECEPTOR AGONIST AND A PHARMACEUTICAL COMPOSITION FOR PREVENTING OR TREATING OBESITY COMPRISING THE SAME” (HANMI PHARM. CO., LTD., priority 2022, published 2026)
*1 amine or outer side, *2 acyl side, *3 side chain or, on linkers, in order; H or OH if unused. Bridges are numbered along the chain shown (N, C = ends). Where no end group is shown, it is not given here. Side-chain parts run from the residue outwards. [ ]: non-standard residue; d: D form. The star is where a group is joined. C20 diacid = O=C(O)CCCCCCCCCCCCCCCCCCC(=O)*; C18 diacid = O=C(O)CCCCCCCCCCCCCCCCC(=O)*; γGlu = O=C(O)[C@H](CCC(=O)[*:2])N[*:1]; AEEA = NCCOCCOCC(=O)O; Aib = CC(C)(N)C(=O)O

B1: triple agonist of SEQ ID NO: 8 (peptide)
peptide: Y[Aib]QGTFTSDYSK([AEEA-AEEA-γGlu-C18 diacid])YLDEKRAKEFVQWLLDHHPSSGQPPPS-NH2
modifications: lactam 16-20; N-terminus assumed
SMILES: CC(C)C[C@H](NC(=O)[C@H](Cc1ccc(O)cc1)NC(=O)[C@H](CCCCNC(=O)COCCOCCNC(=O)COCCOCCNC(=O)CC[C@H](NC(=O)CCCCCCCCCCCCCCCCC(=O)O)C(=O)O)NC(=O)[C@H](CO)NC(=O)[C@H](Cc1ccc(O)cc1)NC(=O)[C@H](CC(=O)O)NC(=O)[C@H](CO)NC(=O)[C@@H](NC(=O)[C@H](Cc1ccccc1)NC(=O)[C@@H](NC(=O)CNC(=O)[C@H](CCC(N)=O)NC(=O)C(C)(C)NC(=O)[C@@H](N)Cc1ccc(O)cc1)[C@@H](C)O)[C@@H](C)O)C(=O)N[C@@H](CC(=O)O)C(=O)N[C@H]1CCC(=O)NCCCC[C@@H](C(=O)N[C@@H](CCC(=O)O)C(=O)N[C@@H](Cc2ccccc2)C(=O)N[C@H](C(=O)N[C@@H](CCC(N)=O)C(=O)N[C@@H](Cc2c[nH]c3ccccc23)C(=O)N[C@@H](CC(C)C)C(=O)N[C@@H](CC(C)C)C(=O)N[C@@H](CC(=O)O)C(=O)N[C@@H](Cc2c[nH]cn2)C(=O)N[C@@H](Cc2c[nH]cn2)C(=O)N2CCC[C@H]2C(=O)N[C@@H](CO)C(=O)N[C@@H](CO)C(=O)NCC(=O)N[C@@H](CCC(N)=O)C(=O)N2CCC[C@H]2C(=O)N2CCC[C@H]2C(=O)N2CCC[C@H]2C(=O)N[C@@H](CO)C(N)=O)C(C)C)NC(=O)[C@H](C)NC(=O)[C@H](CCCNC(=N)N)NC(=O)[C@H](CCCCN)NC1=O
B2: triple agonist of SEQ ID NO: 9 (peptide)
peptide: Y[Aib]QGTFTSDYSK([AEEA-AEEA-γGlu-C18 diacid])YLDEKAAKEFVQWLLDHHPSSGQPPPS-NH2
modifications: lactam 16-20; N-terminus assumed
SMILES: CC(C)C[C@H](NC(=O)[C@H](Cc1ccc(O)cc1)NC(=O)[C@H](CCCCNC(=O)COCCOCCNC(=O)COCCOCCNC(=O)CC[C@H](NC(=O)CCCCCCCCCCCCCCCCC(=O)O)C(=O)O)NC(=O)[C@H](CO)NC(=O)[C@H](Cc1ccc(O)cc1)NC(=O)[C@H](CC(=O)O)NC(=O)[C@H](CO)NC(=O)[C@@H](NC(=O)[C@H](Cc1ccccc1)NC(=O)[C@@H](NC(=O)CNC(=O)[C@H](CCC(N)=O)NC(=O)C(C)(C)NC(=O)[C@@H](N)Cc1ccc(O)cc1)[C@@H](C)O)[C@@H](C)O)C(=O)N[C@@H](CC(=O)O)C(=O)N[C@H]1CCC(=O)NCCCC[C@@H](C(=O)N[C@@H](CCC(=O)O)C(=O)N[C@@H](Cc2ccccc2)C(=O)N[C@H](C(=O)N[C@@H](CCC(N)=O)C(=O)N[C@@H](Cc2c[nH]c3ccccc23)C(=O)N[C@@H](CC(C)C)C(=O)N[C@@H](CC(C)C)C(=O)N[C@@H](CC(=O)O)C(=O)N[C@@H](Cc2c[nH]cn2)C(=O)N[C@@H](Cc2c[nH]cn2)C(=O)N2CCC[C@H]2C(=O)N[C@@H](CO)C(=O)N[C@@H](CO)C(=O)NCC(=O)N[C@@H](CCC(N)=O)C(=O)N2CCC[C@H]2C(=O)N2CCC[C@H]2C(=O)N2CCC[C@H]2C(=O)N[C@@H](CO)C(N)=O)C(C)C)NC(=O)[C@H](C)NC(=O)[C@H](C)NC(=O)[C@H](CCCCN)NC1=O
B3: triple agonist of SEQ ID NO: 2 (peptide)
peptide: Y[Aib]QGTFTSDYSK([AEEA-AEEA-γGlu-C20 diacid])YLDEKRAKEFVQWLLDHHPSSGQPPPS-NH2
modifications: lactam 16-20; N-terminus assumed
SMILES: CC(C)C[C@H](NC(=O)[C@H](Cc1ccc(O)cc1)NC(=O)[C@H](CCCCNC(=O)COCCOCCNC(=O)COCCOCCNC(=O)CC[C@H](NC(=O)CCCCCCCCCCCCCCCCCCC(=O)O)C(=O)O)NC(=O)[C@H](CO)NC(=O)[C@H](Cc1ccc(O)cc1)NC(=O)[C@H](CC(=O)O)NC(=O)[C@H](CO)NC(=O)[C@@H](NC(=O)[C@H](Cc1ccccc1)NC(=O)[C@@H](NC(=O)CNC(=O)[C@H](CCC(N)=O)NC(=O)C(C)(C)NC(=O)[C@@H](N)Cc1ccc(O)cc1)[C@@H](C)O)[C@@H](C)O)C(=O)N[C@@H](CC(=O)O)C(=O)N[C@H]1CCC(=O)NCCCC[C@@H](C(=O)N[C@@H](CCC(=O)O)C(=O)N[C@@H](Cc2ccccc2)C(=O)N[C@H](C(=O)N[C@@H](CCC(N)=O)C(=O)N[C@@H](Cc2c[nH]c3ccccc23)C(=O)N[C@@H](CC(C)C)C(=O)N[C@@H](CC(C)C)C(=O)N[C@@H](CC(=O)O)C(=O)N[C@@H](Cc2c[nH]cn2)C(=O)N[C@@H](Cc2c[nH]cn2)C(=O)N2CCC[C@H]2C(=O)N[C@@H](CO)C(=O)N[C@@H](CO)C(=O)NCC(=O)N[C@@H](CCC(N)=O)C(=O)N2CCC[C@H]2C(=O)N2CCC[C@H]2C(=O)N2CCC[C@H]2C(=O)N[C@@H](CO)C(N)=O)C(C)C)NC(=O)[C@H](C)NC(=O)[C@H](CCCNC(=N)N)NC(=O)[C@H](CCCCN)NC1=O
B4: triple agonist of SEQ ID NO: 3 (peptide)
peptide: Y[Aib]QGTFTSDYSK([AEEA-AEEA-γGlu-C20 diacid])YLDEKAAKDFVQWLLDQHPSSGQPPPS-NH2
modifications: lactam 16-20; N-terminus assumed
SMILES: CC(C)C[C@H](NC(=O)[C@H](Cc1ccc(O)cc1)NC(=O)[C@H](CCCCNC(=O)COCCOCCNC(=O)COCCOCCNC(=O)CC[C@H](NC(=O)CCCCCCCCCCCCCCCCCCC(=O)O)C(=O)O)NC(=O)[C@H](CO)NC(=O)[C@H](Cc1ccc(O)cc1)NC(=O)[C@H](CC(=O)O)NC(=O)[C@H](CO)NC(=O)[C@@H](NC(=O)[C@H](Cc1ccccc1)NC(=O)[C@@H](NC(=O)CNC(=O)[C@H](CCC(N)=O)NC(=O)C(C)(C)NC(=O)[C@@H](N)Cc1ccc(O)cc1)[C@@H](C)O)[C@@H](C)O)C(=O)N[C@@H](CC(=O)O)C(=O)N[C@H]1CCC(=O)NCCCC[C@@H](C(=O)N[C@@H](CC(=O)O)C(=O)N[C@@H](Cc2ccccc2)C(=O)N[C@H](C(=O)N[C@@H](CCC(N)=O)C(=O)N[C@@H](Cc2c[nH]c3ccccc23)C(=O)N[C@@H](CC(C)C)C(=O)N[C@@H](CC(C)C)C(=O)N[C@@H](CC(=O)O)C(=O)N[C@@H](CCC(N)=O)C(=O)N[C@@H](Cc2c[nH]cn2)C(=O)N2CCC[C@H]2C(=O)N[C@@H](CO)C(=O)N[C@@H](CO)C(=O)NCC(=O)N[C@@H](CCC(N)=O)C(=O)N2CCC[C@H]2C(=O)N2CCC[C@H]2C(=O)N2CCC[C@H]2C(=O)N[C@@H](CO)C(N)=O)C(C)C)NC(=O)[C@H](C)NC(=O)[C@H](C)NC(=O)[C@H](CCCCN)NC1=O

Columns and labels:
Experiment in all cases: cell-based or functional assay
[1] = biological target: human GLP-1 receptor (human, UniProt P43220 24-463)
[2] = biological target: human GCG receptor (human, UniProt P47871 26-477)
[3] = biological target: T1, human GIP receptor (human, UniProt P48546 22-466)
T1 sequence (looked up): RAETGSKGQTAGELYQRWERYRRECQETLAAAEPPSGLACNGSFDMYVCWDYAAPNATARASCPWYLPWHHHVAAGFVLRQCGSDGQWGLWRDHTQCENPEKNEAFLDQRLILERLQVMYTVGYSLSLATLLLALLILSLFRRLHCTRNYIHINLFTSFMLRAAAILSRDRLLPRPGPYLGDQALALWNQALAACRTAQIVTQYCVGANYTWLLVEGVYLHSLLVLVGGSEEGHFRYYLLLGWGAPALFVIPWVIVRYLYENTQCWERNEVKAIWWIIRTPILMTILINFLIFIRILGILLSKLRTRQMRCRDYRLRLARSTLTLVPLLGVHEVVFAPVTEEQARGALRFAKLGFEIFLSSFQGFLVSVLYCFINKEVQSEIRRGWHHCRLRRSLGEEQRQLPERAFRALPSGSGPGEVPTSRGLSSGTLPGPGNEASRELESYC

human GCG receptor, sequence (P47871 26-477): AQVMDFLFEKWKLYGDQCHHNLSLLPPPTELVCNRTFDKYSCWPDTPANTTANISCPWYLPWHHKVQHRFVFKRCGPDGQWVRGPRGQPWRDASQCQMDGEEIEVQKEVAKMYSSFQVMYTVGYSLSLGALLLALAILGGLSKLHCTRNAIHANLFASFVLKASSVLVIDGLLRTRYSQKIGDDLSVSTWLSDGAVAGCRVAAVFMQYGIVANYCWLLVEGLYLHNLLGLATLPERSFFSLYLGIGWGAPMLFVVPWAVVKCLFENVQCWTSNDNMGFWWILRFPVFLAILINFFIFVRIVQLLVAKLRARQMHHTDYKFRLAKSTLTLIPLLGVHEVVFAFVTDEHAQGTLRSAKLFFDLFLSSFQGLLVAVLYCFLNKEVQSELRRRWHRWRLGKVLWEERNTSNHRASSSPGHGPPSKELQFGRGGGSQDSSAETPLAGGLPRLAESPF

| In vitro Activity Compared to Native Peptide (%) vs. GLP-1 (relative titer from cAMP EC50) [1] | In vitro Activity Compared to Native Peptide (%) vs. Glucagon (relative titer from cAMP EC50) [2] | In vitro Activity Compared to Native Peptide (%) vs. GIP (relative titer from cAMP EC50) [3] | Binder |
| --- | --- | --- | --- |
| 9.68 % of human GLP-1 | 5.89 % of human GCG | 4.89 % of human GIP | B1 |
| 15 % of human GLP-1 | 0.51 % of human GCG | 8.42 % of human GIP | B2 |
| 3.87 % of human GLP-1 | 3.35 % of human GCG | 2.17 % of human GIP | B3 |
| 5.52 % of human GLP-1 | 0.4 % of human GCG | 7.04 % of human GIP | B4 |
